Measured values published in the supplement of paper PMC10126150.
± gives the standard deviation of the averaged measurements.

Tested on: ATP
Test: switch fluorescence ratio, 500 uM ATP over buffer (Cy3 cluster intensity, sum of 5 cycles each) (fold (ratio)); higher = stronger signal-on switching upon ATP binding; sequences stand for … in TCGTCGGCAGCGTCAGATGTGTATAAGAGACAGTTTTTTTTTTTTTTTTTTTTTTTTT…TC
Settings: aptamer strand: ATP DNA aptamer (quencher-CACCTGGGGGAGTATTGCGGAGGAAGG + anchor), 100 nM annealed; ATP concentration: 500 uM
Procedure, shortened: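 Between each of five buffer/ATP cycles, the flow-cell was stripped with NaOH and re-annealed. Each cycle imaged Cy3-labelled switching-strand clusters, annealed to 100 nM quencher-labelled ATP aptamer on a modified Illumina MiSeq flow-cell, first in selection buffer and then after 15 min with 500 uM ATP at 22 °C. The fluorescence ratio is summed target-cycle over summed buffer-cycle Cy3 intensity per cluster, averaged per switch-domain sequence, with clusters outside 100-1000 RFU excluded.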
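Also: ATP exposure 15 min at 22 °C before imaging.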

Sequence	switch fluorescence ratio
CAATAGTCAA	1.05 ± 0.013
TGCGCTTGTC	0.974 ± 0.082
CGTAGACTCG	1.02 ± 0.05
TGGAGGGGGA	0.999 ± 0.038
GGAAGTAGCC	0.959 ± 0.038
GCCTTTCAAT	1.024 ± 0.0015
AGTTAGCTT	1.02 ± 0.072
GGGGTGGGAA	0.9795 ± 0.0094
AAAATAAAGG	0.976 ± 0.023
AAGGAGTAGC	1.04 ± 0.095
GTGTTAATGG	0.998 ± 0.022
TCTGTTAGGA	1 ± 0.035
ACTAGGCAAG	1.13 ± 0.018
TTGCGTACGG	1.01 ± 0.053
GTCACCAACA	1.27 ± 0.28
GTTGTGTTTG	0.998 ± 0.022
TTTATTCTAA	0.976 ± 0.02
AGAATGATTG	0.988 ± 0.017
AGGTATTGGA	0.985 ± 0.015
GTTTATTTCT	1.02 ± 0.049
TAAGGTTGGT	0.987 ± 0.028
TTATGCGGTG	1.0223 ± 0.00072
TTTCGGGGTT	1.04 ± 0.1

Sequence	switch fluorescence ratio
CTGGGTAGGC	0.992 ± 0.018
TACGGCCGAG	1 ± 0.0029
AAGAAAGGGG	0.979 ± 0.034
TATCTGAACG	1.01 ± 0.037
AGGGAATCGT	0.9953 ± 0.0013
CAGTTCTGTA	1.01 ± 0.038
TGCGTGAGGG	1.04 ± 0.016
AAATATATCT	0.987 ± 0.012
ATATTACGAA	1.02 ± 0.035
TCATGAACTT	1.07 ± 0.078
CGCAGCGGTT	1.49 ± 0.041
GGACACATGC	1.1 ± 0.14
GCTAGTGGGG	0.999 ± 0.018
ATGGAACCGT	1.02 ± 0.027
CCAGTAGTCT	1.05 ± 0.019
TGTGTAAAGG	1.04 ± 0.042
GGGGTAACGG	0.987 ± 0.036
AATTTGGTCG	0.978 ± 0.03
ATTAGTAGGT	0.976 ± 0.012
AGACAAAAAT	1.026 ± 0.0065
TCCTGATTTT	1.02 ± 0.037
TGTTTGTCTT	1 ± 0.069
TAATAGTTCT	1.01 ± 0.026

Sequence	switch fluorescence ratio
GTGTTCAGGG	1.02 ± 0.021
TATCATAGCG	1.01 ± 0.046
AGGTGAGGCA	1.05 ± 0.097
TATCAGAGGT	1.03 ± 0.036
TTTGCCCTTT	1.24 ± 0.32
TTTGCTGGAT	1.08 ± 0.046
TGAGATGGTT	1.01 ± 0.029
GGTTGCTTGA	0.9848 ± 0.002
GCGAGACTGT	1.07 ± 0.04
TTTGAACGTT	1 ± 0.037
TGAGGGGTGA	1.01 ± 0.029
CAGTAGGCAG	0.95 ± 0.016
CTAGTCTAAT	1.01 ± 0.039
AATAGCTACT	1.076 ± 0.01
ATCATTAGGA	0.9922 ± 0.0046
GGGGGCTAGT	0.991 ± 0.056
CCTTGTTTAA	1.01 ± 0.086
TTCGGAGTAC	1.38 ± 0.14
CAAAGAGTAG	1.002 ± 0.005
GAGTGGGCGG	0.996 ± 0.071
CCTCTTGAGG	0.978 ± 0.016
ATTGAAGCTT	1.009 ± 0.0089
GAAGGCTAAT	0.974 ± 0.022

Sequence	switch fluorescence ratio
AGCGAGTTGG	0.958 ± 0.039
TTATTCTTTT	1 ± 0.026
TACAAGAAGG	1.015 ± 0.0066
TTTTGTAGGT	0.973 ± 0.056
TTGACGCAGG	1.06 ± 0.012
TCGAGAAGGT	0.993 ± 0.054
GGGTTGGGTC	0.996 ± 0.029
GCGTTATCTT	0.99586 ± 0.00081
GTATTTTAGG	0.999 ± 0.053
ATATATTCC	1.1 ± 0.019
ATGCTTCTTT	0.9854 ± 0.0053
GGCGCCGCGG	0.9937 ± 0.0092
TCCGTGGGGA	1.16 ± 0.25
ACCAGTCTCG	1.07 ± 0.08
TGTGCACATT	1.02 ± 0.024
TTGTTGAAAC	1.03 ± 0.085
GATGTTAAGC	0.9867 ± 0.0095
TTGGGGGGCT	1.01 ± 0.09
TTTAAAAAAC	1 ± 0.026
TGTTGGTTCG	0.97 ± 0.062
TGTAATCTTC	1.01 ± 0.016
GGGTCTTCTC	1.01 ± 0.053
GATAGTGGCA	1.03 ± 0.023

Sequence	switch fluorescence ratio
TCATGGATAG	1.006 ± 0.002
TTTAGAAGGA	0.9796 ± 0.0067
TCAGGACGGC	0.99 ± 0.044
GTGTCGGGGA	1.01 ± 0.071
GGTACAGAAT	0.9997 ± 0.0012
GGGTTAAGAT	0.997 ± 0.0054
TAGAGAGGGA	1.04 ± 0.096
GGGGGGCTTG	1.02 ± 0.043
TATTAGATTC	0.9656 ± 0.0023
TAAGGGGGGA	1.03 ± 0.08
GGCGGTATAG	1.02 ± 0.013
TATCACGGCT	0.969 ± 0.0099
CCGGGCAGAG	1.96 ± 0.071
TTGCTGGCGC	1.036 ± 0.0055
CGGGGTATTC	0.964 ± 0.078
GGGCAGATAT	1.02 ± 0.017
TGCAGGGGTC	1.02 ± 0.025
ATAGTAGTCG	1.03 ± 0.1
TTTTTTCTTA	0.995 ± 0.023
GGTTGTGGGC	0.992 ± 0.019
ATAGACTTCT	0.9966 ± 0.0064
CAAGATTGGA	0.961 ± 0.025
TTCCGGTCCG	1.16 ± 0.18

Sequence	switch fluorescence ratio
GATAGCCAAT	1.02 ± 0.016
GGTGGAATCT	1.02 ± 0.052
TAACGGACTA	1.29 ± 0.023
ACTCGAGGAT	1.03 ± 0.013
GATTGTACTA	0.998 ± 0.019
TTAGGGGCGA	0.994 ± 0.012
TCAGGGTTTT	1.01 ± 0.018
GTTGCGATGA	1.02 ± 0.013
GTGTCGGGGT	1.002 ± 0.004
GGTTCGAGAC	1.01 ± 0.025
ATAAGGGGGA	0.998 ± 0.022
CCGAGGGGGA	1.26 ± 0.17
TGGTCCGGGG	1.01 ± 0.087
GGCCTTCGGG	0.972 ± 0.053
AGACGGGGGC	0.978 ± 0.12
GTTCTGGGGT	1 ± 0.016
TGGGAACGAG	1.01 ± 0.017
TTATAGGCGC	1.03 ± 0.029
ACGGACGCAA	3.95 ± 0.66
ACTATGGCTG	0.957 ± 0.045
ATGAATCTTG	1.02 ± 0.032
CGGCGTGTAT	1 ± 0.055
GAAGTAGAGT	0.963 ± 0.028

Sequence	switch fluorescence ratio
AAGTAGGTAT	1.02 ± 0.011
AAGGGGTGTT	1.02 ± 0.02
AAAAGCTGGG	1.02 ± 0.051
TGGAATTGTT	1 ± 0.026
GCCGATTACG	1.02 ± 0.033
ACACATCGGA	1.005 ± 0.0057
TTATGACAAC	1.015 ± 0.0044
GAGGCGACTG	1.03 ± 0.031
GTTGGGTTGG	1 ± 0.033
AGGGGGATCA	1.011 ± 0.0061
GTACTTCATC	1.06 ± 0.058
TTAAGGGTTG	1.02 ± 0.019
TTCTGGGGGA	0.992 ± 0.039
ACTAAACGAG	1.062 ± 0.0078
GGGGTGGAAT	1.03 ± 0.012
TTTGGGCAAG	1.06 ± 0.043
TAAGATGGTG	0.981 ± 0.011
TGGGAATGGC	0.9555 ± 0.0094
TTGACGGAGG	0.983 ± 0.032
